According to US7345022B2, “Anti-fibril peptides” (Board of Supervisors of Louisiana State University and …, priority 2002, dated 2008):
*1 amine or outer side, *2 acyl side, *3 side chain or, on linkers, in order; H or OH if unused. Where no end group is shown, it is not given here. [ ]: non-standard residue; d: D form. Dbzg = C-alpha,alpha-dibenzylglycine, O=C(C(Cc1ccccc1)(Cc1ccccc1)N[*:1])[*:2]; Dibg = C-alpha,alpha-diisobutylglycine, CC(C)CC(CC(C)C)(N[*:1])C(=O)[*:2]; Dpg = CCCC(N)(CCC)C(=O)O

Tests used:
PC-12 cells = conditions: MTT, reported by Pallitto et al.; cited from earlier work
[1] = prior pentapeptide inhibitors of Aβ1-40 fibril formation; cited from earlier work
[2] = tested on: preformed β-amyloid fibrils; assay: Dissolution of preformed fibrils (SPM and TEM); assay type: biochemical; conditions: preliminary
Protocol: Preliminary experiments have confirmed that the novel peptides can promote the dissolution of existing fibrils. The ability of the peptide AMY-1 to dissolve preformed fibrils was assessed with both scanning probe microscopy (SPM) and transmission electron microscopy (TEM). […] A twisting appeared in the middle of the length of the fibril, as if the AMY-1 peptide was interpolating into it.

Aβ10-35 = target: T1, Aβ10-35 (Homo sapiens, UniProt P05067); assay: Inhibition of Aβ10-35 aggregation on incubation in phosphate buffer; assay type: biochemical; conditions: incubated with Aβ10-35 in phosphate buffer at 37° C.
T1 construct: incubated with the amyloidogenic peptide Aβ10-35 in phosphate buffer at 37° C
Protocol: (§1) wherein Dibg is C^α,α-diisobutylglycine; Dbzg is C^α,α-dibenzylglycine; and Dpg is C^α,α-dipropylglycine. The AMY-1 peptide inhibits aggregation at concentrations of ˜5 μM when incubated with the amyloidogenic peptide Aβ10-35 in phosphate buffer at 37° C., under conditions where the Aβ10-35 peptide alone would form amyloid fibrils. […] AMY-1 is also depicted in FIG. 3. FIG. 4 depicts the manner in which AMY-1 blocks further extension of a growing β-sheet formed from the Aβ peptide.

[3] = Self-aggregation of the peptide; assay type: physicochemical
Protocol: Other strategies have included combinatorial approaches to screen short pentapeptides with L- or D-amino acids to develop small, mostly hydrophobic, inhibitors of Aβ1-40 fibril formation. […] Thus, these peptides can themselves become part of high order aggregates.
as §1
(3) AMY-2 self-aggregates at 50 μM.

Aβ1-40 = Aβ1-40 (Homo sapiens, UniProt P05067); assay: Interaction with Aβ1-40: aggregate and fibril formation (visual, scanning probe microscopy); assay type: biochemical; conditions: for product of the interaction with Aβ1-40: preliminary studies
Protocol: (3) AMY-2 self-aggregates at 50 μM. The interaction of β-Amyloid and AMY-2 is apparent visually. […] SPM images were taken of adsorbed peptide material on a hydrophilic surface (mica or muscovite). […] These non-fibrillar aggregates were ˜100 nm in height and appeared as clusters of aggregated peptide material. […] Another study to explore the later β-Amyloid aggregation (i.e., fibril formation) produced an image of elongated fibrils greater than 10 μm long and 8 nm high.

[4] = adsorbed on hydrophilic surface (mica or muscovite), β-Amyloid1-40

Chain of Aβ1-40 (P05067 672-711 limits assumed): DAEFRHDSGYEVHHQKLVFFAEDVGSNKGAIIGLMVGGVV
Chain of preformed β-amyloid fibrils (P05067 681-706 limits assumed): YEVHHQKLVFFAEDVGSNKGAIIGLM

For KLVF (listed as Homo sapiens), the “protective effect against Aβ toxicity” value (PC-12 cells) is listed as “protective effect against Aβ toxicity”.

For KLVFF, the “protective effect against Aβ toxicity” value (PC-12 cells) is given as “protective effect against Aβ toxicity” and the “self-aggregation (literature)” value [1] is given as “aggregate and form insoluble precipitates”.

In the case of “Lys-Dibg-Val-Dbzg-Phe-Dpg-(Lys)6-NH2 [AMY-1]”, the “effect on preformed fibrils, SPM image” value ([2]; SPM at 10×10 μm^2, on mica) is reported as “less adsorbed Aβ protein on mica”, the “effect on preformed fibrils, TEM” value ([2]; preformed β-amyloid, TEM) is reported as “the fibrillar structures were substantially frayed” and the “concentration at which the peptide inhibits aggregation” value (Aβ10-35) is reported as roughly 5 µM. For the same substance, the self-aggregation [3] was “does not aggregate with itself”, the “fibril formation after long incubation with Aβ1-40” value (Aβ1-40; 4.5 month-incubation, preliminary, data not shown) was “no massive fibrils were formed” and the “product of the interaction with Aβ1-40” value (Aβ1-40; data not shown) was “small, non-fibril aggregate”.

For “(Lys)7-Dibg-Val-Dbzg-Phe-Dpg-NH2 (KKKKKKK[Dibg]V[Dbzg]F[Dpg]-NH2; N-terminus assumed; SMILES CCCC(CCC)(NC(=O)[C@H](Cc1ccccc1)NC(=O)C(Cc1ccccc1)(Cc1ccccc1)NC(=O)[C@@H](NC(=O)C(CC(C)C)(CC(C)C)NC(=O)[C@H](CCCCN)NC(=O)[C@H](CCCCN)NC(=O)[C@H](CCCCN)NC(=O)[C@H](CCCCN)NC(=O)[C@H](CCCCN)NC(=O)[C@H](CCCCN)NC(=O)[C@@H](N)CCCCN)C(C)C)C(N)=O) [AMY-2]”, the “concentration at which the peptide self-aggregates” value ([3]; preliminary studies, data not shown) was 50 µM, the “fibril formation (later aggregation study, image)” value (Aβ1-40; 1:1 ratio of 50 μM β-Amyloid and peptide) was “no fibril formation” and the “visual appearance of the solution” value (Aβ1-40; added to β-amyloid at 1:1 ratio, 50 μM each, room temperature) was “the solution rapidly turned opaque”. The “height of the non-fibrillar aggregates (SPM)” value (Aβ1-40; [4]) was roughly 100 nm, the “morphology of the interaction product (SPM images)” value (Aβ1-40; [4]) was “large, amorphous aggregates” and the “product of the interaction with Aβ1-40” value (Aβ1-40; data not shown) was “large, non-fibril aggregate”.
